Data set [1] deals with Jurkat cells. Kind of data set: subG1 population / DNA fragmentation by flow cytometry after PI staining. To be noted: for DNA fragmentation (sub G0/G1), substance alone: TSA 100 ng/ml or SAHA 2.5 μM. Type of data set: cell-based. The protocol: Cell Cycle Analysis by cytometry—Cells were harvested, washed with PBS and then fixed in suspension in 75% cold ethanol at 4° C. for 2 hours at least. The samples were then centrifuged, washed with PBS, and treated with 0.25% triton X-100 for 10 minutes at room temperature. The cells were washed again, resuspended in 2.5 μg/ml of PI and 250 μg/ml Rnase A in PBS, and incubated at 4° C. overnight prior to measurement. Cellular fluorescence was measured using the Facscalibur flow cytometry (Becton Dickinson, San Jose, Calif.). The simple-cell populations were determinated on the basis of their fluorescence-intensity values FL2-A and FL2-W.
The effects of HAMLET on DNA fragmentation were compared between untreated cells and those pre-treated with TSA to increase acetylation. Sub G0/G1 DNA fragmentation was quantified by flow cytometry using the methodology as described in Example 1.
(§1) Cells in medium were used as controls.

The subject of data set [2] is acetyl histone H4 in Jurkat cells. Kind of data set: acetyl histone H4 by flow cytometry. Type of data set: cell-based. To be noted: for histone acetylation (Example 5): TSA 3 hours or 18 h, HAMLET 3 h, total population. As for the experimental part:
Acetyl histone H4 and Cell Cycle Analysis by cytometry—Cells were harvested, washed with PBS and then fixed in suspension in 75% cold ethanol at 4° C. for 2 hours at least. The samples were then centrifuged, washed with PBS, and treated with 0.25% triton X-100 for 10 minutes at room temperature. After addition of 3 ml of PBS and centrifugation, the cells were incubated for at least 30 min in swine serum 1% (DAKO, Solna, Sweden) in PBS. After addition of 3 ml of PBS and centrifugation, the cells were incubated for 3 hours at room temperature in the presence of rabbit polyclonal anti-body to human acetyl Histone H4 (Upstate), diluted 1/500 containing 1% BSA. Cells were then washed and incubated with a FITC-conjugated swine anti-rabbit antibody (DAKO, Solna, Sweden) diluted 1/20 in PBS containing 1% BSA for 2 h. The cells were washed again, resuspended in 2.5 μg/ml of PI and 250 μg/ml Rnase A in PBS, and incubated at 4° C. overnight prior to measurement. The control was prepared identically as described above, except the presence of the histone antibody. Cellular fluorescence was measured using the Facscalibur flow cytometry (Becton Dickinson, San Jose, Calif.). The simple-cell populations were determined on the basis of their fluorescence-intensity values FL2-A and FL2-W. Then red and green emissions from each cell were separated and quantified using the standard optics of the cytometer.
The level of chromatin acetylation in Jurkat cells was quantified by flow cytometry, using specific antibodies to acetylated histone H4 (FIG. 1). To increase acetylation, the cells were treated with the HDAC inhibitor TSA (FIG. 1C, FIG. 1E line 3).
The inhibition of HDAC causes an accumulation of acetylated histones. The level of acetyl histone H4 in Jurkat cells was quantified by flow cytometry after staining with specific antibodies. The cells were counterstained with propidium iodide to visualize the change in chromatin levels. Results are presented as density plot diagrams representing the DNA content on the Y-axis between four populations of cells (Sub1, G1, S, and G2), and the degree of acetylation of Histone H4 on the X-axis.
(In general: A flow cytometer gives signals particle by particle.)

Data set [3] concerns HeLa cells expressing GFP-tagged Histone H4. Kind of data set: acetyl histone H4 and nuclear morphology by confocal microscopy. The data set is classed as cell-based. The note with it: TSA 100 ng/ml; vs control cells. The protocol:
Acetyl histone H4 by confocal microscopy—Hela Cells were grown in Lab-Tek Chamber slides. Cells were washed twice in PBS, and then fixed 10 minutes in PBS formaldehyde 4%. The samples were then centrifuged, washed with PBS, and treated with 0.1% triton X-100 for 2 minutes at room temperature. After washes, cells were incubated for at least 30 min in swine serum 1% (DAKO, Solna, Sweden) in PBS. Then cells were incubated for 3 hours at room temperature in the presence of rabbit polyclonal antibody to human acetyl Histone H4 (Upstate), diluted 1/500 containing 1% BSA. Cells were then washed and incubated with an Alexa633-conjugated goat anti-rabbit antibody (Invitrogen) diluted 1/200 in PBS containing 1% BSA for 2 h. The cells were washed 3×5 min. in PBS prior to evaluation in an LSM 510 META confocal microscope (Carl Zeiss, Germany) with a 63× objective. The frequency of each chromatin patterns is shown in fold of control cells staining after counting a minimum of 30 cells in each experiment.
The effect of HAMLET and TSA on the acetylation of Histone H4 was further examined by confocal microscopy of adherent HeLa cells expressing GFP-tagged Histone H4. […] The acetylation level of histone H4 in the control cells was very weak (FIG. 9A).

The test system of data set [4] is A459 cells. Kind of data set: subG1 DNA fragmentation by flow cytometry in A459 cells. The data set is classed as cell-based. To be noted: TSA 100 ng/ml overnight, then HAMLET 30 μM one hour; data not shown. The protocol:
In addition, non confluent A459 cells were treated with or without TSA 100 ng/ml overnight. Then HAMLET was added for one hour at 30 μM. As before, DNA fragmentation was followed both by flow cytometry. Following PI staining (cf. Materials and methods), subG1 populations were quantified and presented as percent of the total population.

The nature of data set [5]: viability by trypan blue exclusion (Vi-Cell XR). To be noted: human, Jurkat cells.
Protocol: (§2) Jurkat cells were first pretreated with or without TSA 100 ng/ml during 3 or 18H and then treated by HAMLET during 3H. Viability was assessed by trypan blue exclusion using the Vi-Cell XR apparatus.
(§3) To examine if HDAC inhibitors might influence the effects of HAMLET on the viability of tumour cells, Jurkat cells were pretreated with HDAC inhibitors TSA 3 hours or 18 h and then exposed to HAMLET (FIG. 5). The cellular response to the combined treatment was compared to the response to TSA alone (3 h or 18 h) and to HAMLET (3 h). Cells in medium were used as controls. The cellular response was quantified by flow cytometry and the subG1 population was used as a measure of chromatin fragmentation and cell death (FIGS. 5 and 6A). In parallel, cell viability was assessed by ATP levels (FIG. 6B) and trypan blue exclusion (FIG. 6C).
The test system of data set [6] is tailless histones and DNA. Nature of the data set: nucleosome assembly from tailless histones and DNA. The data set is classed as biochemical, Drosophila melanogaster. To be noted: radiolabelled 146 bp DNA fragments, gel. The protocol:
FIG. 4. Effects of HAMLET on a mixture of tailless histones and DNA. HAMLET was added to a mixture of radiolabelled 146 bp DNA fragments and tailless histones. In the absence of HAMLET, no nucleosomes are formed (lane 1). […] Nucleosome assembly on the 146 bp fragment results in one single nucleosome species, designated N. At higher concentrations of HAMLET, more nucleosomes were formed and HAMLET associated with them to form a second band in the gel. HAMLET also dissolved the unspecific histone-DNA aggregated seen in the wells.
Histones—Native, folded histones were obtained from duck erythrocyte nuclei. Native or tailless Drosophila melanogaster histones were expressed in E. coli, purified and assembled into octamers. The fold and functional integrity of the histones were confirmed by nucleosome assembly on DNA.
Chromatin assembly—To generate nucleosomes, histone octamers (recombinant or purified from cells) were assembled on linear DNA according to the “salt jump” method (Stein, 1979). ^32P-labeled 256 bp fragments and carrier DNA (supercoiled plasmid DNA, final DNA concentration 200 μg/ml) were mixed with histones (histone:DNA weight ratio 0.4-0.6) in 2 M NaCl, 10 mM Tris-HCl (pH 7.5). The mixture was incubated for 10 min at 37° C., diluted to 0.5 M NaCl, incubated at the same temperature for 30 min, and dialyzed at 4° C. against 10 mM Tris-HCl (pH 7.5) and 1 mM EDTA for 2 h. […]

Data set [7] deals with Jurkat cells. Kind of data set: cell viability by ATP levels. The data set is classed as cell-based. The note with it: 3 h exposure, vs control cells.
Text: ATP monitoring reagent (AMR) was purchased from Cambrex (Wokingham, U.K.) in the form of a ViaLight™ HS kit and was reconstituted according to the manufacturers guidelines.
as §1

For data set [8], the system named is Jurkat cells. Kind of data set: viability by trypan blue exclusion (Vi-Cell XR). To be noted: HAMLET 3 h, in comparison with control.
Protocol: as §2, §3
The nature of data set [9]: biological activity of α-lactalbumin mutants in apo-conformation. The note with it: mutant proteins stable in apo-conformation at physiologic temperatures, without cofactor.
The conditions of data set [10]: bovine α-lactalbumin mutants, Permyakov et al. 2001; cited from earlier work.

Data on five molecules can be found in patent US20090036368A1, “Therapeutic Combination” (HAMLET PHARMA AB, priority 2005, published 2009).

Numbering of substitutions follows the chain as printed. Names and notes keep the numbering of the source.

With `O=C(CCCCCCC(=O)Nc1ccccc1)NO` [SAHA, suberoylanilide hydroxamic acid], the “DNA fragmentation (sub G0/G1), substance alone” value (shortened to “DNA fragmentation (sub G0/G1)”) in data set [1] (HAMLET 1 hour) was “did not trigger DNA fragmentation”.

In the case of `CC(/C=C/C(=O)NO)=C\[C@@H](C)C(=O)c1ccc(N(C)C)cc1` [TSA, Trichostatin A], in data set [2], the “histone acetylation (Example 5)” value is given as “time dependent increase in histone acetylation”. Besides, the “time of maximal effect on acetylation” value in data set [2] (TSA treatment) is recorded as “two hours”. Besides, the “acetylation of histone H4, increase vs control” value in data set [2] (increased concentration of TSA without HAMLET, intact cells (subG1 removed)) was 2 fold. In [3], the “acetylation of Histone H4” value is listed as “increase in the staining of the acetylation of histone H4”, the “intensity of the GFP (histone H4) staining” value is “slight increase” and the “size of the nuclei” value was “slight increase in the size of the nuclei”. Also, in [4], the “cell death (subG1)” value is “significantly increased cell death”. This molecule yielded a cytotoxicity at 18 h, 100 ng/ml in data set [5] of 24.9%. For the same molecule, the “DNA fragmentation (sub G0/G1)” value in [1] (HAMLET 1 hour) is given as “did not stimulate DNA fragmentation”. The same molecule showed a subG1 population in data set [1] (TSA alone, 18 h) of 26.13%. Further, the “HAMLET-induced DNA fragmentation after HDAC inhibitor pre-treatment” value in data set [1] (pre-treated with TSA 100 ng/ml or SAHA 2.5 μM for 2 hours, HAMLET 1 hour) is “enhanced HAMLET-induced DNA fragmentation”.

B1: HAMLET (protein, UniProt P00709 20-142, looked up)
Alpha-lactalbumin: KQFTKCELSQLLKDIDGYGGIALPELICTMFHTSGYDTQAIVENNESTEYGLFQISNKLWCKSSQVPQSRNICDISCDKFLDDDITDDIMCAKKILDIKGIDYWLAHKALCTEKLEQWLCEKL
modifications: complex with oleic acid
Turning to B1, in [6], the “effect on mixture of tailless histones and 146 bp DNA” value is on record as “assembly of nucleosomes”. Besides, in data set [2], the “histone acetylation (Example 5)” value is “did not change the degree of acetylation”. The “histone H4 acetylation (Example 1)” value in [2] (low concentrations of HAMLET 1H, TSA 100 ng/ml 2H, vs medium control) is listed as “decrease in histone H4 acetylation”. For the same molecule, in data set [7] (HAMLET 0.1 mg/ml), the “decrease in ATP levels” value came out at 9.2%. Moreover, the “decrease in ATP levels” value in data set [7] (HAMLET 0.2 mg/ml) worked out at 41.17%. In addition, in data set [7] (HAMLET 0.3 mg/ml), the “decrease in ATP levels” value is 85.71%. Besides, in data set [3], the “acetylation of Histone H4” value was “increase in the acetylation of Histone H4”, the “intensity of the GFP (histone H4) staining” value is “increase of the intensity of the GFP staining” and the “size of the nuclei” value is recorded as “marked decrease in the size of the nuclei”. For the same molecule, the “loss of viability by trypan blue exclusion” value in data set [8] is 19.7%. Also, the “DNA fragmentation (sub G0/G1)” value in data set [1] (HAMLET 1 hour) was “induce DNA fragmentation”. Also, the subG1 population in [1] (HAMLET alone, 3 h) stood at 14.58%.

B2: D87A: bovine α-lactalbumin mutant, aspartic acid at position 87 replaced by alanine (protein, UniProt P00711 20-142, looked up, variant D87A)
Alpha-lactalbumin: EQLTKCEVFRELKDLKGYGGVSLPEWVCTTFHTSGYDTQAIVQNNDSTEYGLFQINNKIWCKDDQNPHSSNICNISCDKFLDDDLTADIMCVKKILDKVGINYWLAHKALCSEKLDQWLCEKL
In the case of B2, the biological activity result in [9] is “biologically inactive”. Besides, in data set [10], the calcium binding result was “totally abolish calcium binding”.

B3: D87N: bovine α-lactalbumin mutant, aspartic acid at position 87 replaced by asparagine (protein, UniProt P00711 20-142, looked up, variant D87N)
Alpha-lactalbumin: B2 Alpha-lactalbumin with A87N
As for B3, in [9], the biological activity entry is “biologically inactive”. Moreover, the calcium binding result in data set [10] was “still bound calcium but with lower affinity”.
